Consider 1 substance from paper doi:10.1101/546648.

pKd: −log10 of the molar value.

The data set concerns the target OrnVc (oligoribonuclease) (Vibrio cholerae O1 El Tor?) (UniProt Q9KV17). Description: DRaCALA. Particulars: 5' phosphate.

In the case of pGpG (GG, 2-mer), the pKd (in general, the negative decadic logarithm of the Kd, by convention in mol/L) was 7.05.
